From patent US20110223176A1 (AbbVie / Abbott, published 2011)

What was measured:
[1] = target: T1, human BSG2 (basigin isoform 2) on the cell surface (human, UniProt P35613 140-385); experiment: cell-based or functional assay
T1 sequence: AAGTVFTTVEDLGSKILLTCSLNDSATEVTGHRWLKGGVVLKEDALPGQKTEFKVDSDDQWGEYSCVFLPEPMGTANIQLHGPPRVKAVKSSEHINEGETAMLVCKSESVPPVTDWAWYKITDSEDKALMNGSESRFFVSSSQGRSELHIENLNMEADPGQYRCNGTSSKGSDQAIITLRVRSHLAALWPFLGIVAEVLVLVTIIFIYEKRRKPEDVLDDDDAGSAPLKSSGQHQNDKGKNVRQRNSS

[2] = target: T2, purified recombinant human BSG2 extracellular domain (human, UniProt P35613 22-325); experiment: SPR (Biacore), mAb captured by anti-mouse Fc, BSG2 ECD injected, 25 C
T2 construct: also called Human BSG2 ECD
T2 sequence: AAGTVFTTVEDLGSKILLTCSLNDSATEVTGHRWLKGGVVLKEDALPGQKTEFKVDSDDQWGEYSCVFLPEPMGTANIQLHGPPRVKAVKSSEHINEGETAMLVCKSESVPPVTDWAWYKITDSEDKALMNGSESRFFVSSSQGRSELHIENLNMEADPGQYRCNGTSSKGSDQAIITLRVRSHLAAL
Experimental: (§1) Binding of BSG2 antibodies to a purified recombinant BSG2 extracellular domain (ECD) was determined by surface plasmon resonance-based measurements with a Biacore® instrument (either a Biacore 2000, Biacore 3000, or Biacore T100; GE Healthcare, Piscataway, N.J., US). The assay format for mAb affinity analysis was Fc-based capture via immobilized anti-Fc IgG. A standard amine coupling protocol was employed to immobilize Fc-specific IgG via primary amines to the carboxy-methyl (CM) dextran surface of CMS sensorchips. For the study of mouse anti-human BSG2 mAbs, anti-mouse Fc was used as the immobilized capture reagent. An automated protocol, available on the Biacore 2000, was used to immobilize 8000-10000RU of capture reagent in all 4 flowcells of the sensorchip. Binding was recorded as a function of time and kinetic rate constants were calculated. In this assay, on-rates as fast as 10⁷M⁻¹ s⁻¹ and off-rates as slow as 10⁻⁵ s⁻¹ can be measured.
(§2) Briefly, the CM-dextran surfaces were activated by freshly prepared 1:1 […] 3-(N,N-dimethylamino)propyl-N-ethylcarbodiimide (EDC). Then the anti-Fc IgG capture reagent (20 μg/ml in 10 mM sodium acetate, pH 4.5) was applied to the surface followed by deactivation of the surface and blocking of the residual reactive sites with 1M ethanolamine (pH 8.5). The running buffer employed was PBS-PB [1×PBS (Sigma P3813), pH 7.4, 0.005% P20 surfactant, 0.1 mg/ml BSA (Sigma-A7906)] and the assay temperature was 25° C. All reagents were diluted into running buffer to the specified concentrations. Each experimental cycle consisted of the following steps: (1) anti-BSG2 mAbs at 0.5 to 1 μg/ml were captured in flowcells 2, 3 or 4 to a level of 100-120RU. All measurements were referenced against flowcell 1 which had no captured anti-BSG2 mAb; (2) human BSG2 ECD was injected through all 4 flowcells, 240 μl at 80 μl/min. After the antigen injection, dissociation was monitored for 600 seconds at 80 μl/min; and (3) the anti-Fc capture surface was regenerated with 10 mM glycine, pH 1.5.
(§3) The BSG2 antibody binding affinities were determined by the BIACORE technology as described in Example 1.2. Table 10 represents the antibody binding kinetics against human and cynomolgus monkey BSG2 extracellular domain (ECD).

[3] = target: T3, cynomolgus monkey BSG2 extracellular domain (cynomolgus monkey); experiment: as above
T3 construct: extracellular domain; also called Cynomolgus BSG2 ECD
Experimental: as §1, §2, §3

[4] = target: T4, cynomolgus monkey BSG2 on the cell surface (cynomolgus monkey); experiment: receptor binding assay, Eu-labeled antibody on cells expressing cynomolgus BSG2
T4 construct: whole, on cells; also called BAF3-cyno BSG2; Cyno BSG2
Experimental: Cell lines expressing BSG2 were harvested and washed once in assay buffer (PBS, 0.1% BSA, 0.02% Na Azide, 10 mM EDTA) and resuspended to 5×10⁶ cells per mL. Serial 1:2 dilutions of ⁺³Eu-labeled anti-BSG2 antibody stock in assay buffer were made for final concentrations ranging from 1.6×10⁻⁸-7.7×10⁻¹² M, and a 4 mg/mL solution of unlabeled anti-BSG2 antibody was also prepared. To 96 well round bottom plates, 25 μl of ⁺³Eu-labeled antibody dilutions were added to 25 μl buffer (total counts), or 25 μl of unlabeled antibody were added to 25 μl buffer (background counts). 50 μl of cells at 2.5×10⁵ cells per well were then added to all samples, mixed gently, and incubated on ice for 1 hour. […] Signal was determined by incubating samples with 150 μL/well of enhancement buffer and read using Envision. The specific counts were determined by subtracting the background counts (cells+labeled antibody+excess cold antibody) from the corresponding total counts (cells+labeled antibody) for each antibody concentration. The labeled antibody concentration versus total counts was analyzed using Graphpad Prism 4 to calculate Kd and Bmax values.
BSG2 antibody binding activities against whole cells expressing human or cynomolgus monkey BSG2 were assessed by ECL using MSD technology (described in Example 1.3) and the receptor binding assay (described in Example 1.4) and are shown in Table 11.

B1: mouse anti-human BSG2 monoclonal antibody ML64-6A11-3A3 (antibody, mouse IgG2a, V domains shown)
VH: EVKLEESGGGLVQPGGSMKLSCVASGFTFSNFWMDWVRQSPEKGLEWIAGIRLKSYNYATHYAESVKGRFTISRDDSKSSVYLQMNNLRAEDTGIYYCTDWDGAYWGQGTLVTVSA
VL: DIVMTQSHKFMSTSVGDRVSITCKASQDVSTDVAWYQQKPGQSPKLLIYSASYRYTGVPDRFTGSGSGTDFTFTISSVQAEDLAVYYCQQHYSTPFTFGSGTKLEIK
notes: Hybridoma antibody, mouse IgG2a/kappa; also called 6A11-3A3 parental mouse antibody; Ab 3A3
For B1, the “CDC assay (% killing at 10 µg/ml Ab), MiaPaCa-2 pancreatic cancer cells” value [1] was 84 % killing, the Kd [2] was 1.5 nM and the koff [2] was 0.00059 s⁻¹. The kon [2] was 400000 M⁻¹ s⁻¹, the Kd [3] was 440 nM and the koff [3] was 0.149 s⁻¹. For the same binder, the kon [3] was 338000 M⁻¹ s⁻¹ and the Kd [4] was 3.6 nM.
